In US12281155:

Legend:
[1] = target: T1, recombinant SARS-CoV-2 Spike RBD domain, Wuhan (SARS-CoV-2); assay: ELISA on coated RBD; details: remark: other sources report otherwise
[2] = target: T1, recombinant SARS-CoV-2 Spike RBD …; assay: competition ELISA, blocking of RBD binding to ACE2 ectodomain; details: remark: other sources report otherwise

B1: SPK002 antibody (parental version Cv2.3194 described in WO 2022/228827) (antibody, V domains shown)
VH: EVQLVESGGGLIQPGGSLRLSCAASGITVTSNYMSWVRQAPGKGLEWVSVIYPGGSTFYADSVKGRFTISRDNSKNTLYLQMNSLRAEDTAVYYCARDLVVYGMDVWGQGTTVTVS
VL: EIVLTQSPGTLSLSPGERATLSCRASQSVSSSYLAWYQQKPGQAPRLLIYGASSRATGIPGRFSGSGSGTDFTLTISRLEPEDFAIYYCQQGVTFGGGTKVEIK
[1]
  Binding AUC: 34
[2]
  Blocking %: 88%
